Reference: patent US20080167229A1 (Dana-Farber, published 2008)

Key:
[1] = molecular target: T1, N-terminal cleavage product of endogenous USP1 (human, UniProt O94782 1-671); assay: anti-Flag immunoprecipitation from transiently transfected 293T cells, anti-USP1 immunoblot
T1 construct: the end at 671 is inferred from that; also called N-terminal USP1; N-terminal USP1 fragment
T1 sequence: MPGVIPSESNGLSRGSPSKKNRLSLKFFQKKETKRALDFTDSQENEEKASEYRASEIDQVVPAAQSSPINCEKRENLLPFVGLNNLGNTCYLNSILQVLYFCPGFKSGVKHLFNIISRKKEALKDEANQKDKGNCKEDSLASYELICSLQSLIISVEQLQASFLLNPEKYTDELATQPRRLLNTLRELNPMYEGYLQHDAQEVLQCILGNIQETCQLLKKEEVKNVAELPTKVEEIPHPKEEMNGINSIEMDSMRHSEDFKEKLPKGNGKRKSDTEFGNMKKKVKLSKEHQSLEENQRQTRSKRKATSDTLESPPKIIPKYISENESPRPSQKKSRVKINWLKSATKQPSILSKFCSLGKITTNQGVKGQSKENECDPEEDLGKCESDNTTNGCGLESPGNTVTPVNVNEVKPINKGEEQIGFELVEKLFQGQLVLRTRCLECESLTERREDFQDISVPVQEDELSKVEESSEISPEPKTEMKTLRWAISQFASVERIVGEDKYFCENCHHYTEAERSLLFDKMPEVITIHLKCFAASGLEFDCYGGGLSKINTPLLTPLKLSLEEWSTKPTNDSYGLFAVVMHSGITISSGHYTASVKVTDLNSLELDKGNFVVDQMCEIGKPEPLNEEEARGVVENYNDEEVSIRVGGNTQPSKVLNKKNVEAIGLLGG
Method: (§1) The Flag-tagged proteins were immunoprecipitated from cell lysates using anti-Flag antibodies. The immunoprecipitates were analyzed using the indicated antibodies. […] The concentrations of all proteins were 10 nM.

[2] = molecular target: T2, endogenous USP1, full length (HeLa and 293T cells) (human, UniProt O94782 1-785); assay: as above
T2 construct: Full length endogenous protein detected in immunoprecipitates; also called Ubiquitin Specific Protease 1
T2 sequence: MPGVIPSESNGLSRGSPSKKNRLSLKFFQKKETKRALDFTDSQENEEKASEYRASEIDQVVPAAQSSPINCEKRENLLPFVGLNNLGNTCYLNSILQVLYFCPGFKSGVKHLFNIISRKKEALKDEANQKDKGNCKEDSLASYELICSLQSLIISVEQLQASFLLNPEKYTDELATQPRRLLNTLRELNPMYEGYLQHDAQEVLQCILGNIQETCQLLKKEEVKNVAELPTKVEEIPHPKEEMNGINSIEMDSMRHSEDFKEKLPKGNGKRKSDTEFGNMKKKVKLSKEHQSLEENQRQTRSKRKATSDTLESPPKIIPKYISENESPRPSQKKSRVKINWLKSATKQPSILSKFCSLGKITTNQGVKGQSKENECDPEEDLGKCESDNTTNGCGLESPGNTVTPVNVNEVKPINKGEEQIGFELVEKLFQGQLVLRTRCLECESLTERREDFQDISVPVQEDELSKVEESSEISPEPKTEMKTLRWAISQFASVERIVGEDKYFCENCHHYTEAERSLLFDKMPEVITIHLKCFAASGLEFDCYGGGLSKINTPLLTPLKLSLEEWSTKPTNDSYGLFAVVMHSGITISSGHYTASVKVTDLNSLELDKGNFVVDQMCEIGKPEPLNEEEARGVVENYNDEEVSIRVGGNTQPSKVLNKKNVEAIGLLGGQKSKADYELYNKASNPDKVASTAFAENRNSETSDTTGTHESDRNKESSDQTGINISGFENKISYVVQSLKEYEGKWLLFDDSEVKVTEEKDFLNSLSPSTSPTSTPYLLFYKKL
Method: as §1

binding result [1]: no binding
binding result [2]: no binding
B1: Flag-tagged UAF1-Δ507-546 expressed in 293T cells (other)
chain: MAAHHRQNTAGRRKVQVSYVIRDEVEKYNRNGVNALQLDPALNRLFTAGRDSIIRIWSVNQHKQDPYIASMEHHTDWVNDIVLCCNGKTLISASSDTTVKVWNAHKGFCMSTLRTHKDYVKALAYAKDKELVASAGLDRQIFLWDVNTLTALTASNNTVTTSSLSGNKDSIYSLAMNQLGTIIVSGSTEKVLRVWDPRTCAKLMKLKGHTDNVKALLLNRDGTQCLSGSSDGTIRLWSLGQQRCIATYRVHDEGVWALQVNDAFTHVYSGGRDRKIYCTDLRNPDIRVLICEEKAPVLKMELDRSADPPPAIWVATTKSTVNKWTLKGIHNFRASGDYDNDCTNPITPLCTQPDQVIKGGASIIQCHILNDKRHILTKDTNNNVAYWDVLKACKVEDLGKVDFEDEIKKRFKMVYVPNWFSVDLKTGMLTITLDESDCFAAWVSAKDAGFSSPDGSDPKLNLGGLLLQALLEYWPRTHVNPMDEEENEVNHVNGEQENRVQKGNGYPQWVIDITVDKNMPKFNKIPFYLQPHASSGAKTLKKDRLSASDMLQVRKVMEHVYEKIINLDNESQTTSSSNNEKPGEQEKEEDIAVLAEEKIELLCQDQVLDPNMDLRTVKHFIWKSGGDLTLHYRQKS
notes: Deletion of aa 507-546 as printed; not shown: Flag tag
